Assay [1] has as its target 868-Z11 single chain TCR (WT), displayed on yeast. The assay can be described thus: flow cytometry on cells; yeast displaying the 868-Z11 scTCR stained with PE-conjugated SL9/HLA-A2 tetramer, 256 pM to 32.8 nM, 30 min at 4°C, PBS-BSA; MFI fit to a 1:1 binding isotherm; apparent KD; in duplicate. (In general: Flow cytometry measures light scatter and fluorescence of single cells or particles in a stream.)

The target of assay [2] is 868-Z11 A94αH/T96βK single chain TCR. The assay is described as follows: SPR; steady state; scTCR immobilised on a CM5 Series S chip by amine coupling (about 2000 RU); peptide/MHC injected at 5 μL/min at concentrations between 50 µM and 2 nM; 25 °C; HBS-EP (10 mM HEPES, 150 mM NaCl, 3 mM EDTA, 0.005% surfactant P-20, pH 7.4); 1:1 binding model; each cell one of three titrations of its group. A general note: Surface plasmon resonance follows binding to a sensor surface in real time, without labels.

Assay [3] concerns the target 868-Z11 T96βK single chain TCR. Described as above.
Assay [4] addresses 868-Z11 G104βP/T96βK single chain TCR. The assay is described as above.
For assay [5], the target named is 868-Z11 G104βP/T96βK single chain TCR, soluble recombinant.
Assay [6] deals with 868-Z11 A94αH/T96βK single chain TCR, soluble recombinant. The assay can be described thus: SPR; steady state; scTCR immobilised on CM5 chip by amine coupling (about 2000 RU); peptide/MHC injected at 50 µM to 2 nM, 5 μL/min; 25°C; HBS-EP pH 7.4; 1:1 model.
Assay [7] concerns the target 868-Z11 G104βP/T96βK single chain TCR, soluble recombinant. The description is as above.
The target in assay [8] is 868-Z11 T96βK single chain TCR, soluble recombinant. Described as above.
Assay [9] concerns the target 868-Z11 G104βP single chain TCR, soluble recombinant. The assay can be described thus: SPR; single cycle kinetics; scTCR immobilised on CM5 chip by amine coupling (100-300 RU); peptide/MHC injected at 0.6-48 nM, 100 μL/min; 25°C; HBS-EP pH 7.4; 1:1 model.
Assay [10] addresses 868-Z11 A94αH single chain TCR, soluble recombinant. Described as above.

“And” between values parts separate entries of the source, which are not always exact repeats. Identical values can stand only once.

Regarding “PE-conjugated SL9/HLA-A2 tetramer (from UniProt P61769 21-119) (peptide-MHC)”, the Kd in assay [1] came to 0.0017 µM.
In the case of “SL9 T8V escape variant presented by HLA-A*02:01 (from UniProt P61769 21-119) (peptide-MHC)”, the Kd in [2] was 22.2 µM and 24.3 µM and 40.7 µM; in assay [3], 1.6 µM and 1.9 µM and 2.7 µM; in assay [4] it was 1.4 µM and 3.5 µM and 3.2 µM.
In the case of “SL9 V6I escape variant presented by HLA-A*02:01 (from UniProt P61769 21-119) (peptide-MHC)”, the Kd in [2] is 9.5 µM and 12.4 µM and 17.9 µM; in assay [3], 0.8 µM and 1.1 µM and 1.2 µM; in [4], 0.7 µM and 1.5 µM and 1.6 µM.
“SL9 V6I/T8V escape variant presented by HLA-A*02:01 (from UniProt P61769 21-119) (peptide-MHC)”: the Kd in [2] is 9.9 µM and 13.7 µM and 17.9 µM; in [3], 0.8 µM and 1.1 µM and 1 µM; in assay [4], 0.8 µM and 1.8 µM and 1.5 µM.
For the substance “SL9 Y3F escape variant presented by HLA-A*02:01 (from UniProt P61769 21-119) (peptide-MHC)”, the Kd in assay [2] is 264 µM and 274 µM and 403 µM; in assay [3], 38.6 µM and 39.3 µM and 58.2 µM; in [4], 34 µM and 39.8 µM and 52.3 µM.
Regarding “SL9 Y3F/T8V escape variant presented by HLA-A*02:01 (from UniProt P61769 21-119) (peptide-MHC)”, the Kd in assay [2] is 324 µM and 314 µM and 475 µM; in assay [3], 46 µM and 44.6 µM and 59 µM; in assay [4], 49.1 µM and 62.5 µM.
“SL9 Y3F/V6I escape variant presented by HLA-A*02:01 (from UniProt P61769 21-119) (peptide-MHC)”: the Kd in assay [2] is 102 µM and 105 µM and 167 µM; in [3], 9.6 µM and 10.2 µM and 15.7 µM; in [4], 12.5 µM and 18.5 µM and 22.5 µM.
On to “SL9 Y3F/V6I/T8V escape variant presented by HLA-A*02:01 (from UniProt P61769 21-119) (peptide-MHC)”, for which the Kd in assay [2] is 154 µM and 177 µM and 203 µM; in assay [3], 17.3 µM and 23.8 µM and 20.2 µM; in assay [4], 20.4 µM and 28.1 µM and 26.3 µM.
Consider “SL9/HLA-A2 (HIV SL9 epitope presented by HLA-A*02:01), soluble (from UniProt P61769 21-119) (peptide-MHC)”, for which the peptide EC50 of IL-2 release (ELISA): CD8+ Jurkat 76 cells with the full length 868-Z11 G104βP/T96βK TCR co-cultured with T2 cells pulsed with WT SL9 peptide, 0.1 nM-100 µM in assay [5] turned out to be 0.01 µM. Besides, the Kd in [6] is 33 µM; in assay [7], 2.2 µM; in [8], 2.5 µM; in assay [9], 0.0003 µM; in [10], 0.0052 µM.

Source of the values: PMC10967027.
